Patent publication US20200317776A1 (published 2020)
Positions count from the first letter of the chain named.

T1: human TREM2 Fc fusion (entire TREM2 ECD; only one Fc arm fused to TREM2) (human, UniProt Q9NZC2 19-174)
T1 construct: also called huTREM2-Fc; recombinant hTREM2
T1 sequence: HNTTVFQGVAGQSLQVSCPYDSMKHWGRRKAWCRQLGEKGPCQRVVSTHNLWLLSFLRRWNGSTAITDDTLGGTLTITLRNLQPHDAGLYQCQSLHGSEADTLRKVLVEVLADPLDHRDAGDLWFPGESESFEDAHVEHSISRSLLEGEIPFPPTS

T2: cynomolgus monkey TREM2 Fc fusion (entire TREM2 ECD; only one Fc arm fused to TREM2) (cynomolgus monkey, UniProt Q9NZC2 19-174 (human entry))
T2 construct: also called cyno TREM2-Fc
T2 chain: T1 sequence with A10E, W60R, L89F, F125V

T3: human TREM2 expressed on cells (human, UniProt Q9NZC2 19-230)
T3 construct: BW5147.G.1.4 cells stably expressing human TREM2 together with Dap12, or endogenous TREM2 of primary human myeloid cells; also called huT2 BW; hTREM2 expressing cell line
T3 sequence: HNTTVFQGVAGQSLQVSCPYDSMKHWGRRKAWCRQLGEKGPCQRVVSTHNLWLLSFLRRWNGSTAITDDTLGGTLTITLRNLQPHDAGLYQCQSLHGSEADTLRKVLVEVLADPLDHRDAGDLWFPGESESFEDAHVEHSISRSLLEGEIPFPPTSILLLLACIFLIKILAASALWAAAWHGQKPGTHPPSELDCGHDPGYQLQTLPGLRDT

B1: AL2p-7 (antibody, V domains shown)
VH: QVQLVQSGAEVKKPGSSVKVSCKASGYAFSLSWMNWVRQAPGQGLEWMGRIYPGDGDTNYAQKFRGRVTITADESTSTAYMELSSLRSEDTAVYYCARLLRNQPGESYAMDYWGQGTLVTVSS
VL: GVVMTQTPLSLSVTPGQPASISCRSSQSLIHSNGYTYLHWYLQKPGQSPQLLIYKVSNRRSGVPDRFSGSGSGTDFTLKISRVEAEDVGVYYCSQSTRVPYTFGQGTKLEIK
notes: Fab and IgG formats under one id
B2: AL2p-10 (antibody, V domains shown)
VH: B1 VH with L31S, S32D, R65Q
VL: B1 VL with I30V
notes: as for B1
B3: AL2p-11 (antibody, V domains shown)
VH: B1 VH with L31S, S32D, Q62R, R65Q
VL: B1 VL with G1D, Q27R, I30V, R60V
notes: as for B1
B4: AL2p-12 (antibody, V domains shown)
VH: B1 VH with L31S, S32H, Q62H, R65Q
VL: B1 VL with I30V
notes: as for B1
B5: AL2p-13 (antibody, V domains shown)
VH: B1 VH with L31S, S32H, R65K
VL: B1 VL
notes: Fab and IgG formats under one id; also called AL22-13
B6: AL2p-14 (antibody, V domains shown)
VH: B1 VH with L31S, S32H, R65Q
VL: B1 VL with Q27R, I30V, R60F
notes: as for B1
B7: AL2p-17 (antibody, V domains shown)
VH: B1 VH with L31S, S32H, F64R, R65Q
VL: B1 VL with G1D, Q27R, I30V, R60V
notes: as for B1
B8: AL2p-18 (antibody, V domains shown)
VH: B1 VH with L31S, S32H, F64W, R65Q, E106S
VL: B1 VL with S25T, I30V, R60V
notes: as for B1
B9: AL2p-19 (antibody, V domains shown)
VH: B1 VH with L31S, S32H, Q62R, R65Q
VL: B1 VL with G1D, Q27R, I30V, R60V
notes: as for B1
B10: AL2p-20 (antibody, V domains shown)
VH: B1 VH with L31S, S32H, Q62R, R65Q
VL: B1 VL with S25T, I30V, R60V
notes: as for B1
B11: AL2p-61 (antibody, IgG1, V domains shown)
VH: B1 VH with L31S, S32Q, D55E, Q62R, R65Q
VL: B1 VL with I30V, G34Q

Assays:
[1] = molecular target: T1, human TREM2 Fc fusion (entire TREM2 …); test: BLI, IgG, avid
Method: Briefly, IgGs were loaded on-line onto AHQ sensors, Sensors were equilibrated off-line in assay buffer for 30 minutes and then monitored on-line for 60 seconds for baseline establishment. For avid binding measurement, sensors with loaded IgGs were exposed to 100 nM antigen (human or cynomolgus monkey TREM2 Fe fusion using the entire TREM2 ECD; only one Fc arm was fused to TREM2) for 3 minutes, afterwards they were transferred to assay buffer for 3 minutes for off-rate measurement. Monovalent binding measurements were obtained by loading human TREM2 Fc fusion antigens to AHQ sensor and followed by exposure to 100 nM TREM2 antibody Fab. Kinetics data were fit using a 1:1 binding model in the data analysis software provided by ForteBio. Assay was run at room temperature (25° C.).

[2] = molecular target: T1, human TREM2 Fc fusion (entire TREM2 …); test: BLI, Fab, monovalent
[3] = molecular target: T2, cynomolgus monkey TREM2 Fc fusion …; test: BLI, Fab, monovalent
[4] = molecular target: T3, human TREM2 expressed on cells; test: FACS, hTREM2 BW cells
Excerpt: To examine cell binding of affinity matured anti-TREM2 antibodies, both primary human monocyte derived dendritic cells and recombinant, human TREM2 expressing cells were utilized. For the latter, BW5147.G.1.4 (ATCC® TIB48™) and HEK293T cells stably expressing human TREM2 together with Dap12 using viral infection were established. For primary human monocyte derived dendritic cells, human monocytes were isolated from whole blood using RosetteSep Human monocyte enrichment cocktail (Stemcell technologies) and Ficoll centrifugation per manufacturer protocols. After lysing red blood cells with ACK lysing buffer, monocytes were resuspended in complete media (RPMI, 10% FBS, Pen/Strep, L-glutamine, HEPES, non-essential amino acid, Sodium pyruvate) with 100 ng/ml human GM-CSF (hu-GMCSF) and, human IL-4 (hu-IL-4) to differentiate dendritic cells for 6 days.
Cells were harvested by trypsinization (Hek293T) or scraping (BW and dendritic cells), washed in PBS, counted and plated on 96-well U bottom plates at […] cells/well. The plates were spun at 1,400 rpm for 3 minutes and primary TREM2 or control antibodies were added in FACS buffer (PBS+2% FBS) and incubated on ice for one hour. Cells were subsequently centrifuged as before and washed thrice with FACS buffer. Cells were then incubated with anti-human PE conjugated secondary antibody (BD Biosciences) in FACS buffer for 30 minutes on ice. Cells were again washed thrice with FACS buffer and analyzed on a BD FACS Canto or an Intellicyt Flow Cytometer. Binding was measured as mean fluorescence intensity in the APC channel.

[5] = molecular target: human TREM2/DAP12 fusion protein (human, UniProt O43914 41-113, limits assumed); test: cell-based or functional assay
human TREM2/DAP12 fusion protein, sequence (O43914 other isoform, or with tags, fused parts or gaps limits assumed): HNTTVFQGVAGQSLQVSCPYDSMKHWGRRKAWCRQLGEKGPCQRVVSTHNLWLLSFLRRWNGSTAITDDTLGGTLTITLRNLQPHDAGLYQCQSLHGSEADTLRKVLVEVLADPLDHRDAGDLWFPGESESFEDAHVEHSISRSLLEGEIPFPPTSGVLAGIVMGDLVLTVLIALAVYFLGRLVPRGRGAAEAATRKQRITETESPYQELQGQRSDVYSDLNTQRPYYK

Binder	Kd [1] [nM]	Kd [2] [nM]	Kd [3] [nM]	Kd [4] [nM]	Luciferase activation plate bound 33 nM IgG, FOC [5] [FOC]	Luciferase activation soluble 10 nM IgG, FOC [5] [FOC]
B1	0.427	8.38	8.95	1.6	18.9	2.35
B2	0.835	18.5	27.7	3.1	4.63	1.6
B3	0.536	9.83	10.2	2.4	23.6	1.71
B4	0.514	5.86	5.25	1.8	15.8	1.96
B5	0.34	4.8	4.93	1.5	16.5	2.17
B6	0.315	4.74	4.66	2.1	27.1	1.79
B7	0.255	4.83	4.62	1.4	23.8	2.13
B8	0.229	3.17	2.73	1.3	8.46	2.06
B9	0.303	4.02	4.01	1.4	25.9	2.06
B10	0.35	4.73	4.72	1.2	22.4	2.12
B11		3730	3.84			
